± gives the uncertainty stated by the source.
Test: self-splicing fitness, log relative to wild type (ln ratio); higher = more splicing; Tetrahymena group I intron in knt gene, E. coli kanamycin selection, DiMSum; sequences stand for … in CUCUCU…GGAGGGAAAAGUUAUCAGGCAUGCACCUGGUAGCUAGUCUUUAAACCAAUAGAUUGCAUCGGUUUAAAAGGCAAGACCGUCAAAUUGCGGGAAAGGGGUCAACAGCCGUUCAGUACCAAGUCUCAGGGGAAACUUUGAGAUGGCCUUGCAAAGGGUAUGGUAAUAAGCUGACGGACAUGGUCCUAACCACGCAGCCAAGUCCUAAGUCAACAGAUCUUCUGUUGAUAUGGAUGCAGUUCACAGACUAAAUGUCGGUCGGGGAAGAUGUAUUCUUCUCAUAAGAUAUAGUCGGACCUCUCCUUAAUGGGAGCUAGCGGAUGAAGUGAUGCAACACUGGAGCCGCUGGGAACUAAUUUGUAUGCGAAAGUAUAUUGAUUAGUUUUGGAGUACUCGUGGUCG
Procedure, shortened: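 Library with all eight P1ex-region intron nucleotides randomised, intron inside the knt kanamycin-resistance gene on pET-22b(+), in E. coli BL21(DE3). Cells grew overnight at 37°C or 30°C on LB agar with or without 25 μg/mL kanamycin (plus 100 μg/mL carbenicillin, 50 μM IPTG, 0.2% rhamnose), in six replicate transformations. Pooled colonies were amplicon-sequenced on Illumina HiSeq 2500. DiMSum fitness is the error-weighted combination of wild-type-normalised replicate fold changes, kanamycin versus none.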

Sequence	self-splicing fitness (ln) (30 °C)	self-splicing fitness (ln) (37 °C)
CCCAAGCAAUAUUACGUACG	-3.55 ± 0.21	-2.9 ± 0.15
CCCAAGCAAUAUUACGUCAA	-1.84 ± 0.14	-2.3 ± 0.19
CCCAAGCAAUAUUACGUCUC	-2.71 ± 0.15	-2.25 ± 0.26
CCCAAGCAAUAUUACGUGCC	-4.01 ± 0.29	-2.97 ± 0.34
CCCAAGCAAUAUUACGUUCU	-3.36 ± 0.14	-3.5 ± 0.22
CCCCAGCAAUAUUACGAACC	-4.18 ± 0.34	-2.46 ± 0.36
CCCCAGCAAUAUUACGAAGA	-2.91 ± 0.24	-2.52 ± 0.26
CCCCAGCAAUAUUACGAAGU	-3.84 ± 0.18	-3.21 ± 0.2
CCCCAGCAAUAUUACGAGCC	-3.75 ± 0.26	-2.54 ± 0.25
CCCCAGCAAUAUUACGAUAG	-3.16 ± 0.1	-3.25 ± 0.17
CCCCAGCAAUAUUACGAUUG	-3.58 ± 0.11	-2.72 ± 0.14
CCCCAGCAAUAUUACGCAUU	-4.14 ± 0.17	-2.81 ± 0.18
CCCCAGCAAUAUUACGCCAA	-2.64 ± 0.17	-2.7 ± 0.19
CCCCAGCAAUAUUACGCCGG	-4.29 ± 0.21	-1.88 ± 0.16
CCCCAGCAAUAUUACGCUUG	-3.52 ± 0.17	-3.06 ± 0.2
CCCCAGCAAUAUUACGGACU	-3.61 ± 0.14	-3.13 ± 0.19
CCCCAGCAAUAUUACGGCAU	-3.43 ± 0.14	-2.42 ± 0.14
CCCCAGCAAUAUUACGGGCA	-2.57 ± 0.13	-1.45 ± 0.11
CCCCAGCAAUAUUACGUCUA	-3.09 ± 0.14	-2.84 ± 0.2
CCCCAGCAAUAUUACGUGGC	-4.37 ± 0.14	-2.74 ± 0.12
CCCCAGCAAUAUUACGUUCC	-3.87 ± 0.24	-3.3 ± 0.3
CCCGAGCAAUAUUACGAAGG	–	-2.18 ± 0.23
CCCGAGCAAUAUUACGAAGU	-3.58 ± 0.18	-2.75 ± 0.24
CCCGAGCAAUAUUACGAGCA	-2.24 ± 0.27	-2.04 ± 0.25

Sequence	self-splicing fitness (ln) (30 °C)	self-splicing fitness (ln) (37 °C)
CCCGAGCAAUAUUACGAGGA	-2.48 ± 0.17	-0.976 ± 0.11
CCCGAGCAAUAUUACGAGUC	-2.67 ± 0.31	-1.69 ± 0.35
CCCGAGCAAUAUUACGAUAA	-1.81 ± 0.23	-2.73 ± 0.25
CCCGAGCAAUAUUACGAUCA	-2.79 ± 0.28	-2.98 ± 0.33
CCCGAGCAAUAUUACGAUCG	-3.58 ± 0.32	-2.71 ± 0.41
CCCGAGCAAUAUUACGAUGA	-3.45 ± 0.43	-2.4 ± 0.28
CCCGAGCAAUAUUACGAUUC	-4.01 ± 0.3	-2.13 ± 0.18
CCCGAGCAAUAUUACGCACU	-2.78 ± 0.25	-3 ± 0.27
CCCGAGCAAUAUUACGCCCU	–	-2.24 ± 0.33
CCCGAGCAAUAUUACGCCGA	-3.02 ± 0.39	-2.14 ± 0.36
CCCGAGCAAUAUUACGCGGU	-3.37 ± 0.16	-2.7 ± 0.17
CCCGAGCAAUAUUACGGACG	-3.62 ± 0.29	-0.706 ± 0.18
CCCGAGCAAUAUUACGGCCA	-2.88 ± 0.23	-3.57 ± 0.28
CCCGAGCAAUAUUACGGGAU	-3.31 ± 0.23	-2.08 ± 0.21
CCCGAGCAAUAUUACGGGCC	-3.99 ± 0.27	-2.26 ± 0.26
CCCGAGCAAUAUUACGGGGC	-3.75 ± 0.19	-2.74 ± 0.17
CCCGAGCAAUAUUACGGUAU	-3.43 ± 0.22	-3.01 ± 0.4
CCCGAGCAAUAUUACGUAAC	-3.43 ± 0.23	-3.05 ± 0.28
CCCGAGCAAUAUUACGUACC	-2 ± 0.21	–
CCCGAGCAAUAUUACGUACU	-3.49 ± 0.24	-1.24 ± 0.14
CCCGAGCAAUAUUACGUCAG	-3.49 ± 0.15	-2.51 ± 0.17
CCCGAGCAAUAUUACGUCGA	-4.11 ± 0.39	-3.16 ± 0.25
CCCGAGCAAUAUUACGUCUA	-3.33 ± 0.2	-2.42 ± 0.22
CCCGAGCAAUAUUACGUUAU	-3.87 ± 0.21	-2.62 ± 0.19

— the supplement of paper PMC7877785
